Measurements published in article PMC3775802.

Tests used:
[1] = biological target: T1, human alpha-thrombin (THR) (Homo sapiens) (UniProt P00734+P00734); experiment: back-scattering interferometry; conditions: 5' amino modifier C6 as ordered; 20 mM Tris-HCl pH 7.4, 1 mM MgCl2, 120 mM NaCl, 10 mM KCl; thrombin co-injected with 500 nM cytochrome c; binding temperature not stated; cited from earlier work
[2] = biological target: T1, human alpha-thrombin (THR) (Homo sapiens); experiment: competition (SPRi, free thrombin quantification); conditions: 5' amino modifier C6 as ordered; 20 mM Tris-HCl pH 7.4, 1 mM MgCl2, 120 mM NaCl, 10 mM KCl; thrombin co-injected with 500 nM cytochrome c; binding temperature not stated

Sequence: TTTTTTTTTTAGTCCGTGGTAGGGGAGGTTGGGGTGACT [APT (anti-thrombin aptamer), solution competitor]
- Kd [1]: 3.84 nM
- Kd [2]: 3.16 nM
